Holding throughout (details): protein: recombinant; tags: C-terminal His; label: 32P; blunt
For one data set, the target named is MeCP2[1-486] (Homo sapiens, UniProt P51608 1-486). Briefly: EMSA; 250 mM KCl; preferred over CG; EMSA: 10 mM Tris-HCl pH 7.5, 150 mM KCl (250 mM for MeCP2[1-486]), 0.1 mg/ml BSA, 5% glycerol, 0.1 mM EDTA, 1 ug poly(dA-dT), 1 ng probe, 20 ul, 30 min on ice.
Data set [1] addresses T1, MeCP2[1-205] (Homo sapiens, UniProt P51608 1-205). The experiment in a line: EMSA; stronger than mCAC and GGTGT; EMSA: 10 mM Tris-HCl pH 7.5, 150 mM KCl (250 mM for MeCP2[1-486]), 0.1 mg/ml BSA, 5% glycerol, 0.1 mM EDTA, 1 ug poly(dA-dT), 1 ng probe, 20 ul, 30 min on ice. (Mobility shift assays separate free from complexed probe on a gel.)
Data set [2] has as its target T1, MeCP2[1-205]. The experiment in a line: EMSA; EMSA: 10 mM Tris-HCl pH 7.5, 150 mM KCl (250 mM for MeCP2[1-486]), 0.1 mg/ml BSA, 5% glycerol, 0.1 mM EDTA, 1 ug poly(dA-dT), 1 ng probe, 20 ul, 30 min on ice.
For another data set, the target named is MeCP2[77-167] (Homo sapiens, UniProt P51608 77-167). The description is as above.
In data set [3] the target is T1, MeCP2[1-205]. Briefly: EMSA; background only; EMSA: 10 mM Tris-HCl pH 7.5, 150 mM KCl (250 mM for MeCP2[1-486]), 0.1 mg/ml BSA, 5% glycerol, 0.1 mM EDTA, 1 ug poly(dA-dT), 1 ng probe, 20 ul, 30 min on ice.
The target of data set [4] is T1, MeCP2[1-205]. Briefly: EMSA; similar to GGTGT and mCAC; EMSA: 10 mM Tris-HCl pH 7.5, 150 mM KCl (250 mM for MeCP2[1-486]), 0.1 mg/ml BSA, 5% glycerol, 0.1 mM EDTA, 1 ug poly(dA-dT), 1 ng probe, 20 ul, 30 min on ice.
Data set [5] deals with T1, MeCP2[1-205]. The experiment in a line: EMSA; comparable to mCAC, lower than mCG; EMSA: 10 mM Tris-HCl pH 7.5, 150 mM KCl (250 mM for MeCP2[1-486]), 0.1 mg/ml BSA, 5% glycerol, 0.1 mM EDTA, 1 ug poly(dA-dT), 1 ng probe, 20 ul, 30 min on ice.
Data set [6] addresses T1, MeCP2[1-205]. Briefly: EMSA; only marginal effect; EMSA: 10 mM Tris-HCl pH 7.5, 150 mM KCl (250 mM for MeCP2[1-486]), 0.1 mg/ml BSA, 5% glycerol, 0.1 mM EDTA, 1 ug poly(dA-dT), 1 ng probe, 20 ul, 30 min on ice.
Data set [7] addresses T1, MeCP2[1-205]. The experiment in a line: EMSA; no significant binding; EMSA: 10 mM Tris-HCl pH 7.5, 150 mM KCl (250 mM for MeCP2[1-486]), 0.1 mg/ml BSA, 5% glycerol, 0.1 mM EDTA, 1 ug poly(dA-dT), 1 ng probe, 20 ul, 30 min on ice.

Substitutions are numbered along the chain they refer to.

B1: mCG (dsDNA)
DNA 1: AAGCATGCAATGCCCTGGAACGGAATTCTTCTAATAAAAGATGTATCATTTTAAATGC
DNA 2: GCATTTAAAATGATACATCTTTTATTAGAAGAATTCCGTTCCAGGGCATTGCATGCTT
modifications: 5mC at strand 1 position 21; reverse strand the appropriate methylated oligo (position not given)
For the molecule B1, the binding result in the data set with MeCP2[1-486] and with MeCP2[1-205] [1] was “binds” throughout.

B2: mCAC (dsDNA)
DNA 1: B1 DNA 1 with G22A, G23C
DNA 2: B1 DNA 2 with C36G, C37T
modifications: 5mC at strand 1 position 21
Take B2: the binding result in the data set with MeCP2[1-205] [2] and with MeCP2[77-167] was “binds” in each case.

B3: CAC (dsDNA)
DNA 1: B1 DNA 1 with G22A, G23C
DNA 2: B1 DNA 2 with C36G, C37T
For B3, the binding result with MeCP2[1-205] [3] was “no binding”.

B4: GT5 (dsDNA)
DNA 1: AAGCATGCAATGCCCTGGAAGTGTGTGTGTAATTCTTCTAATAAAAGATGTATCATTTTAAATGC
DNA 2: GCATTTAAAATGATACATCTTTTATTAGAAGAATTACACACACACTTCCAGGGCATTGCATGCTT
In the case of B4, the binding result in the data set with MeCP2[1-205] [4] is given as “binds”.

B5: GGTGT (dsDNA)
DNA 1: AAGCATGCAATGCCCTGGAAGGTGTAATTCTTCTAATAAAAGATGTATCATTTTAAATGC
DNA 2: GCATTTAAAATGATACATCTTTTATTAGAAGAATTACACCTTCCAGGGCATTGCATGCTT
Consider B5, for which, in the data set with MeCP2[1-205] [5], the binding result was “binds”.

B6: GGTGU (dsDNA)
DNA 1: B5 DNA 1 with T25U
DNA 2: B5 DNA 2
modifications: 3' motif T replaced by deoxyuridine
Consider B6, for which the binding result with MeCP2[1-205] [6] was “binds”.

B7: GT4 (dsDNA)
DNA 1: AAGCATGCAATGCCCTGGAAGTGTGTGTAATTCTTCTAATAAAAGATGTATCATTTTAAATGC
DNA 2: GCATTTAAAATGATACATCTTTTATTAGAAGAATTACACACACTTCCAGGGCATTGCATGCTT
As to B7, in the data set with MeCP2[1-205] [4], the binding result is recorded as “binds”.

B8: GT2 (dsDNA)
DNA 1: AAGCATGCAATGCCCTGGAAGTGTAATTCTTCTAATAAAAGATGTATCATTTTAAATGC
DNA 2: GCATTTAAAATGATACATCTTTTATTAGAAGAATTACACTTCCAGGGCATTGCATGCTT
On to B8, for which the binding result in the data set with MeCP2[1-205] [4] was “binds”.

B9: GT1 (dsDNA)
DNA 1: AAGCATGCAATGCCCTGGAAGTAATTCTTCTAATAAAAGATGTATCATTTTAAATGC
DNA 2: GCATTTAAAATGATACATCTTTTATTAGAAGAATTACTTCCAGGGCATTGCATGCTT
Take B9: the binding result with MeCP2[1-205] [7] was “no binding”.

B10: GT3 (dsDNA)
DNA 1: AAGCATGCAATGCCCTGGAAGTGTGTAATTCTTCTAATAAAAGATGTATCATTTTAAATGC
DNA 2: GCATTTAAAATGATACATCTTTTATTAGAAGAATTACACACTTCCAGGGCATTGCATGCTT
With B10, the binding result with MeCP2[1-205] [4] is reported as “binds”.
